Columns and labels:
human IL-13 [1] = target: T1, human IL-13 (human, UniProt P35225 35-146, biotinylated on the Biacore chip); test: cell-based or functional assay
human IL-13 [2] = target: T1, human IL-13; test: IL-13 BIAcore binding assay
human IL-13 [3] = target: T1, human IL-13; test: IL-13 sandwich ELISA, competition with coating antibody
Experimental: A MAXISORP™ plate (high protein binding ELISA plate, Nunc, Denmark) was coated overnight with 2.5 μg/ml coating antibody (Module Set, Bender MedSystems, Vienna, Austria), then washed once with 0.05% (v/v) Tween 20 in PBS before blocking with 0.5% (w/v) BSA 0.05% (v/v) Tween 20 in PBS. […] The plate was then incubated with TMB substrate (KPL, Gaithersburg, USA), and the reaction was stopped by the addition of HCl and the absorbance read at 450 nm.

T1 sequence (P35225 35-146 limits assumed): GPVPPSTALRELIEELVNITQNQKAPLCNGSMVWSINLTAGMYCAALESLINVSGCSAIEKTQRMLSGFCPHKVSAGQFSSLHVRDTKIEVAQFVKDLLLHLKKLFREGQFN

B1: DOM10-276-15 (other)
VH: EVQLLESGGGLVQPGGSLRLSCAASGFTFRDYEMDWVRQAPGKGLEWVSSISPNGSETNYADSVKGRFTISRDNSKNTLYLQMNSLRAEDTAVYYCAKAYTSFDYWGQGTLVTVSS
notes: VH dAb
For B1, the “IC50, IL-13 cell binding assay (so in the source)” value (human IL-13 [1]) was 90 nM, the Kd (human IL-13 [2]) was 1.5 nM and the IC50 (human IL-13 [3]) was 100 nM.

— patent publication US20090060916A1 (published 2009)
